One assay concerns the target T1, Kap114pΔ(Y939) (S. cerevisiae, UniProt P53067 1-1004, ΔY939).
T1 construct: Kap114p, S. cerevisiae, full length with residue Y939 deleted; also called GST-Kap114p (Δ939); source: E. coli Rosetta, purified (GST resin, MonoQ, Superdex 200)
T1 sequence (looked up): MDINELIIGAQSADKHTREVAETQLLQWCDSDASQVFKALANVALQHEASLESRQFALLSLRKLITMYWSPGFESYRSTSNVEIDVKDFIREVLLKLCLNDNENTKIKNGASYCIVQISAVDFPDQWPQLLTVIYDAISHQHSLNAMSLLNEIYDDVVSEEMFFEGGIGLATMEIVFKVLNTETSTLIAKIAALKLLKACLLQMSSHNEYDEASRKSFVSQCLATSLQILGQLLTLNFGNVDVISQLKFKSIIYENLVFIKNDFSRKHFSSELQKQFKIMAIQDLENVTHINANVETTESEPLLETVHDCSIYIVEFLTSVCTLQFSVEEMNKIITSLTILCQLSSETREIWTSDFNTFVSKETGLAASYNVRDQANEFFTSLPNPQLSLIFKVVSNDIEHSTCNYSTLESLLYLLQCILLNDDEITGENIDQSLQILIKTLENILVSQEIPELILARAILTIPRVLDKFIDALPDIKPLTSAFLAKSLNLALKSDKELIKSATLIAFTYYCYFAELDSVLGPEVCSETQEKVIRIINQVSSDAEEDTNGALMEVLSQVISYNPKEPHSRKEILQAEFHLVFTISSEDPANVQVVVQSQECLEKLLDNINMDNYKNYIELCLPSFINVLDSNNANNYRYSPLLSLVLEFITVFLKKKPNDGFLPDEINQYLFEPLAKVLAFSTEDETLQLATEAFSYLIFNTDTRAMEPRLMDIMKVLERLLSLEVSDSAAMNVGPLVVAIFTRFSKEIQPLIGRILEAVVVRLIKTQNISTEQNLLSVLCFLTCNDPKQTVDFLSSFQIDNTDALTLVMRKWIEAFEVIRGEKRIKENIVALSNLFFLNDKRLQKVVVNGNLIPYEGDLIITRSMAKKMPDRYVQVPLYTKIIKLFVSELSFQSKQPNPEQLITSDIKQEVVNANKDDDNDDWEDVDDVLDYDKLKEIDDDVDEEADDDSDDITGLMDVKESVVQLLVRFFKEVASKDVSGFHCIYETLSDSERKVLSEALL
Description: ITC; MicroCal iTC200, 25 °C, 20 mM HEPES pH 7.4, 150 mM NaCl; high concentration: 50 µM wild type or mutant Kap114p in the sample cell, 500 µM wild type or mutant yTBPC in the syringe; triplicate. The note with it: both partners purified. On the technique in general: Isothermal titration calorimetry measures the heat released or taken up as one component is titrated into another.

The target in a further assay is T2, Kap114pΔ(848-875) (S. cerevisiae, UniProt P53067 1-1004, Δ848-875).
T2 construct: this construct is not in the list of mutants of the cloning methods; also called Δ(a.a.848-875); GST-Kap114p (Δ848-875); source: E. coli Rosetta, purified (GST resin, MonoQ, Superdex 200)
T2 sequence (looked up): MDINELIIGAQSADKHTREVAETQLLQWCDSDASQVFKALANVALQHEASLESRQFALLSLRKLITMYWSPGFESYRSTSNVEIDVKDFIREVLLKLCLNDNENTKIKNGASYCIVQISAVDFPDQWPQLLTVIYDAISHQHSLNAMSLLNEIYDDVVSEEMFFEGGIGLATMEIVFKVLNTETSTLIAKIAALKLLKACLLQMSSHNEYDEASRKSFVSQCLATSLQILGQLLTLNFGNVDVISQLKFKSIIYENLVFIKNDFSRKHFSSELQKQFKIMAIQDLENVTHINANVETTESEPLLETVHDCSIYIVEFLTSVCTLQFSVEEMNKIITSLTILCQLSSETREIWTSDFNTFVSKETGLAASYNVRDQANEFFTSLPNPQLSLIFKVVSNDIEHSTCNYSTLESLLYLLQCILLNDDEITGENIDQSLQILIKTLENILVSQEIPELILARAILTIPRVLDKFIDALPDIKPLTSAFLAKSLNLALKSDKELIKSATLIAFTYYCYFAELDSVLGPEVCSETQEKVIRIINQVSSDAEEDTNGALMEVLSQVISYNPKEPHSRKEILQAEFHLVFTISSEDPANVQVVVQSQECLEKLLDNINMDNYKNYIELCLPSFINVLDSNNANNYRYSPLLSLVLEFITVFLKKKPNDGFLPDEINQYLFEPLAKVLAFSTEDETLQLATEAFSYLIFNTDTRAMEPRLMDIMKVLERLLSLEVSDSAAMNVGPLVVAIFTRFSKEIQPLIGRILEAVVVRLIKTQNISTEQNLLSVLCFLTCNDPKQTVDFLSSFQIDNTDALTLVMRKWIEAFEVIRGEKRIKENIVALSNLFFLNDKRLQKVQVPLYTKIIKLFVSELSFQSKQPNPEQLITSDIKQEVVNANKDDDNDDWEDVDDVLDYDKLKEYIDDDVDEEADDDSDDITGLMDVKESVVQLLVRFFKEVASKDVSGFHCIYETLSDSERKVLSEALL
The description is as above. Conditions: both partners purified.

B1: yTBP^C wild type (core domain of yeast TATA-box binding protein, a.a. 61-240) (domain or fragment, S. cerevisiae, UniProt P13393 61-240, looked up)
chain: SGIVPTLQNIVATVTLGCRLDLKTVALHARNAEYNPKRFAAVIMRIREPKTTALIFASGKMVVTGAKSEDDSKLASRKYARIIQKIGFAAKFTDFKIQNIVGSCDVKFPIRLEGLAFSHGTFSSYEPELFPGLIYRMVKPKIVLLIFVSGKIVLTGAKQREEIYQAFEAIYPVLSEFRKM
notes: modified pET28a, 6xHis tag followed by a PreScission site; also called yTBPC WT; His-yTBP (61-240); source: E. coli Rosetta, purified (Ni-NTA, HiTrap SP, Superdex 75); not shown: His6, N-terminal, cleaved
As to B1, the Kd is 37.1 nM with Kap114pΔ(Y939) and 1.7 nM in the assay with Kap114pΔ(848-875).

Broadly, the Kd is the concentration at which binding is half-saturated. Higher therefore signals weaker binding.

The record behind these values is paper PMC10491584, “Structural convergence endows nuclear transport receptor Kap114p with a transcriptional repressor function toward TATA-binding protein” (Nature Communications, 2023).
